Where only a bound is given, the exact number is not on record here.

Assay [1] deals with HLA-A*30:02. Nature of the assay: IEDB peptide-MHC binding, purified MHC/competitive/radioactivity; filed as Kd, often an IC50 or EC50 that approximates it; ≥ and ≤ were set here for values at or beyond the usual limits of such assays.
In assay [2] the target is HLA-B*44:02. The description is as above.
In assay [3] the target is HLA-B*44:03. The description is as above.
Assay [4] concerns the target HLA-A*32:01. The assay is described as above. The conditions noted are these: source organism: Dengue virus 1 Brazil/97-11/1997.
Assay [5] has as its target HLA-A*02:01. Briefly: IEDB peptide-MHC binding, purified MHC/competitive/fluorescence; ≥ and ≤ were set here for values at or beyond the usual limits of such assays.
In assay [6] the target is HLA-A*02:02. Nature of the assay: IEDB peptide-MHC binding, purified MHC/competitive/radioactivity; filed as Kd, often an IC50 or EC50 that approximates it; ≥ and ≤ were set here for values at or beyond the usual limits of such assays.
The target of assay [7] is HLA-A*02:03. The assay is described as above.
The target in assay [8] is HLA-A*02:06. Described as above.
For assay [9], the target named is HLA-A*68:02. The description is as above.
Assay [10] has as its target HLA-B*40:01. The assay is described as above.
In assay [11] the target is HLA-B*35:01. The assay is described as above.
For assay [12], the target named is HLA-B*53:01. The description is as above.
For assay [13], the target named is HLA-B*51:01. The assay is described as above.
In assay [14] the target is HLA-A*26:01. The assay is described as above. The conditions noted are these: source organism: Dengue virus 1 Brazil/97-11/1997.
In assay [15] the target is HLA-A*02:01. Nature of the assay: IEDB peptide-MHC binding, purified MHC/competitive/fluorescence; filed as Kd, often an IC50 or EC50 that approximates it; ≥ and ≤ were set here for values at or beyond the usual limits of such assays. The note with it: source organism: Hepacivirus hominis.
The target in assay [16] is HLA-A*01:01. Briefly: IEDB peptide-MHC binding, purified MHC/competitive/radioactivity; filed as Kd, often an IC50 or EC50 that approximates it; ≥ and ≤ were set here for values at or beyond the usual limits of such assays.
In assay [17] the target is HLA-A*23:01. Described as above. The note with it: source organism: Dengue virus 4 Dominica/814669/1981.
Where [18] appears, read: source organism: Dengue virus 1 Brazil/97-11/1997.
The mark [19] stands for this setting: source organism: Dengue virus 4 Philippines/H241/1956.
The mark [20] stands for this setting: source organism: Zaire ebolavirus.
Where [21] appears, read: source organism: Hepatitis C virus (isolate 1).
[22] abbreviates: source organism: Sudan ebolavirus.
Setting [23] is: source organism: Dengue virus 2 Jamaica/1409/1983.
Setting [24] is: source organism: Trypanosoma cruzi.
Where [25] appears, read: source organism: Dengue virus 3 Martinique/1243/1999.

Consider AAVLMLVAHY, for which, in assay [1] (setting [18]), the Kd (commonly the equilibrium constant for the complex coming apart) stood at 508 nM.

With AEIQPQWIA, the Kd in assay [2] (setting [19]) came to 26.4 nM; in assay [3] (setting [19]), 1230 nM.

As for AGILARWSSF, the Kd in [4] came out at 2820 nM; in [2] (setting [18]), 5110 nM.

Turning to AGPPKAENT, in assay [5] (setting [20]), the IC50 (in general, the point on the concentration scale where inhibition reaches its midpoint) worked out at 66600 nM.

Turning to ALEAKIAQL, the Kd in assay [6] (source organism: Homo sapiens) came to 14.8 nM; in assay [7] (source organism: Homo sapiens), 46.7 nM; in assay [8] (source organism: Homo sapiens), 1100 nM; in assay [9] (source organism: Homo sapiens), 7300 nM.

For the sequence ALRPSTSRSL, in assay [9] (source organism: Homo sapiens), the Kd is no less than 60000 nM.

As for ASMAICSAV, the Kd in assay [9] (setting [19]) turned out to be 63.7 nM.

Take CESCVYNMM: the Kd in [10] (setting [19]) was determined as 201 nM; in assay [2] (setting [19]), 180 nM.

On to CINGVCWTV, for which, in assay [5] (source organism: Hepatitis C virus genotype 1), the IC50 was no less than 50000 nM. Moreover, the Kd in assay [6] (setting [21]) came out at 3350 nM; in [7] (setting [21]), 6440 nM; in assay [8] (setting [21]), 4370 nM; in [9] (setting [21]), 3780 nM.

Sequence DFLLRRWGG gave a 50% inhibitory concentration (IC50) in [5] (setting [22]) of 56400 nM.

Turning to EEIAVQNWLA, the Kd in assay [3] (setting [23]) was determined as 431 nM.

Turning to EELGDGLAM, the results for the Kd in [10] (setting [18]) and in [3] (setting [18]) were 221 nM and 76.6 nM, respectively.

Turning to EEQTLTILI, the Kd in assay [2] (setting [23]) worked out at 14 nM; in assay [3] (setting [23]) it was 146 nM.

Take EEYTDYMPSM: the Kd came out at 833 nM in assay [10] (setting [23]) and 116 nM in assay [3] (setting [23]).

For the sequence EPGQLKLNWF, the results for the Kd in assay [11] (setting [23]) and in assay [12] (setting [23]) were no less than 42000 nM and 593 nM, respectively.

For FEKQLGQIM, the Kd came to 558 nM in assay [10] (setting [18]) and 2550 nM in assay [2] (setting [18]).

FLQSPPIRE: in assay [5] (setting [22]), the 50% inhibitory concentration (IC50) worked out at 38000 nM.

Take FPGKTVWFV: the Kd was 6360 nM in assay [13] (setting [18]) and 86.1 nM in assay [12] (setting [18]).

Take FVNHRFTLV: the equilibrium dissociation constant (Kd) came to 81.8 nM in [6] (setting [24]), 1.38 nM in [7] (setting [24]), 6.57 nM in assay [8] (setting [24]) and 89.3 nM in assay [9] (setting [24]).

In the case of GEDAPCKIPF, the Kd in [2] (setting [25]) was 59.2 nM.

GESSPNPTI: the equilibrium dissociation constant (Kd) in assay [10] (setting [23]) is 8.75 nM; in [2] (setting [23]), 83.5 nM.

Consider GVVTTSGTY, for which the Kd turned out to be 403 nM in assay [14] and 169 nM in assay [1] (setting [18]).

Regarding IANQAAILM, the Kd in [11] (setting [18]) was found to be 103 nM.

Consider ILDSFDPLV, for which the Kd in [15] came out at 0.6 nM.

For the sequence ILEDQNCKL, the Kd in assay [9] (source organism: Homo sapiens) is no less than 60000 nM.

ILGPDCCIE registered an IC50 in assay [5] (setting [22]) of 28100 nM.

As to IPPTAGVLA, in assay [13] (setting [25]), the Kd is 6140 nM.

For KEENLVKSMV, the dissociation constant (Kd) in assay [3] (source organism: Dengue virus 1 Singapore/S275/1990) was no less than 22100 nM.

In [5] (setting [20]), KKILMNFHQ yielded an IC50 of 63400 nM.

As to KLELKGMSY, the values for the Kd in assay [16] (setting [25]) and in assay [1] (setting [25]) were 391 nM and no less than 76900 nM, respectively.

Regarding KLGEFYNQMM, the IC50 in [5] (source organism: Influenza B virus) worked out at 2820 nM.

With KLKKLEEEQI, the results for the Kd in assay [8] (source organism: Homo sapiens) and in assay [9] (source organism: Homo sapiens) were no less than 59100 nM and no less than 60000 nM, respectively.

As to KTDWLPMTV, in assay [16] (source organism: Dengue virus 3 Sri Lanka/1266/2000), the Kd is 56.5 nM.

On to LAGPMPVTV, for which the Kd in assay [13] (setting [18]) was found to be 870 nM.

On to LAHAIGTSI, for which the Kd in assay [13] (setting [18]) is 157 nM.

Regarding LAIMAVFKM, in assay [11] (setting [19]), the Kd was determined as 22.2 nM.

As for LATGPVLTLW, the Kd in assay [12] (setting [19]) came out at 44.8 nM.

For LAWIPYFGP, the IC50 in assay [5] (setting [20]) turned out to be 17800 nM.

Consider LCLIPTVMAF, for which, in [17], the Kd was determined as 454 nM.

With LEENVEVEIW, the Kd in [2] (setting [23]) is 124 nM; in assay [3] (setting [23]) it was 367 nM.
